Source: publication PMC7195465, “Molecular mechanism of light-driven sodium pumping” (Nature Communications, 2020)
One block for each molecule: values may come before it.

Experiments:
Experiment in all cases: crystal structure; in meso (monoolein) crystals, 1.2 M sodium malonate pH 8.0, grown at 22 °C; pentameric form, space group C222_(1); data at 100 K and at room temperature
[1] = target: KR2-D116N (Krokinobacter eikastus)
[2] = target: KR2-H30A (Krokinobacter eikastus)
[3] = target: the molecule itself

stoichiometry N [1]: 5
Molecule: KR2-D116N (natural protein)

stoichiometry N [2]: 5
Molecule: KR2-H30A (natural protein)

B1: light-driven sodium-pumping rhodopsin KR2 from Krokinobacter eikastus (natural protein)
chain: MTQELGNANFENFIGATEGFSEIAYQFTSHILTLGYAVMLAGLLYFILTIKNVDKKFQMSNILSAVVMVSAFLLLYAQAQNWTSSFTFNEEVGRYFLDPSGDLFNNGYRYLNWLIDVPMLLFQILFVVSLTTSKFSSVRNQFWFSGAMMIITGYIGQFYEVSNLTAFLVWGAISSAFFFHILWVMKKVINEGKEGISPAGQKILSNIWILFLISWTLYPGAYLMPYLTGVDGFLYSEDGVMARQLVYTIADVSSKVIYGVLLGNLAITLSKNKELVEANS
modifications: retinal covalently bound to the lysine residue of helix G via the Schiff base
notes: KR2, light-driven Na+-pumping rhodopsin of Krokinobacter eikastus; Pentamer in the crystals grown at pH 8.0; the construct is not described beyond 'KR2 expression plasmid'; also called KR2-WT; WT protein; source: E. coli SE1 (Staby Codon T7), purified (DDM solubilisation, Ni-NTA, SEC)
stoichiometry N [3]: 5
